Measurements published in patent US6946133.

Target: HLA class I-A2 molecule (human) (UniProt P04439)
Assay: T2 binding assay, peptide 50 µg/ml for 24 h, anti-HLA-A2 mAb, flow cytometry; cut off for positivity 100

T2 binding, relative fluorescence (mean intensity): 51.4
Substance: PSA [42-51] (from UniProt P07288 66-75) (peptide)
